The values that follow come from patent publication US20170267762A1 (APOLLOMICS, published 2017).

In experiment [1] the target is T1, human PD-1 (construct not stated) (human, UniProt Q15116 25-167, limits assumed).
T1 construct: also called PD-1 analyte
Nature of the experiment: Biacore, antibody captured, PD-1 analyte. How it is done:
(§1) To further characterize the binding characteristics of the antibodies, 10 hybridoma antibodies were profiled using Biacore (Biacore 3000, GE) to elucidate binding kinetics and calculate equilibrium binding constants. This assay was performed by capture method, using the mouse antibody capture kit (BR-1008-38, GE). After diluting anti-mouse Fc mab to 25 μg/ml in pH 5.0 immobilization buffer, immobilization was conducted with the parameters shown in Table 6 at a flow rate of 5 μl/min. The kinetic runs were done by 1) injecting ligand for typical 0.5-1 min at flow rate of 10 μl/min.; 2) injecting analytes of choice for typical 3 min followed by dissociation in running buffer (1× PBS-P20) for typical 5-10 min at flow rate of 30 μl/min.; and 3) injecting regeneration solution 10 mM Glycine pH1.7 for typical 1-2 min at flow rate of 10 μl/min.

Experiment [2] addresses T2, human PD-1 extracellular domain fused with human Fc tag (hPD-1-hFc) (human).
T2 construct: also called human PD-1-hFc
Nature of the experiment: ELISA binding (summary table). Here is the method: (§2) ELISA binding analysis was conducted based on human PD-1-hFc Protein. 96-well plates (Costar, Cat No:9018) were coated with 100 μL of 2 μg/ml PD1-hFc (CrownBio) in coating buffer (PBS, Hyclone, Cat No:SH30256.01B) overnight at 4° C. The wells were aspirated and non-specific binding sites were blocked by adding 200 μL of blocking buffer with 1% (w/v) of bovine serum albumin (BSA, Roche, Cat No: 738328) and incubating for 1 hour at 37° C. After the plates are washed three times with wash buffer (PBS with 0.05%(v/v) Tween20 (Sigma, Cat No:P1379), 100 μL/well of a suitable dilutions of hybridoma supernatant in blocking buffer were added and incubated at room temperature for 1 hour. The plates were washed and incubated with 100 μL/well of Goat anti-Mouse IgG (H+L) (Thermo, Cat No: 31432) in blocking buffer for 60 min. After the plates were washed, 100 μL/well of substrate solution (TMB(eBioscience, Cat No:00-4201-56) was added and the plates were incubated for 2min at room temperature. 100 μL/well of stop solution (2N H2SO4) was added to stop the reaction. The colorimetric signals were developed and read at 450 nm using a Auto Plate SpectraMax Plus (Supplier: Molecular Devices; Model: MNR0643; Software: SoftMax Pro v5.4).
(§3) The purified hybridoma antibodies were characterized further based on ELISA and FACS analyses.
In general terms: An ELISA detects its analyte on a solid surface through an enzyme-linked reagent.

Experiment [3] addresses T3, human PD-1 extracellular domain fused with mouse Fc (PD-1-mFc) (human, UniProt Q15116 25-170).
T3 construct: extracellular domain; not used because of the label; also called hPD-1-mFc; human PD-1-mouse Fc fusion protein
Kind of experiment: blockage ELISA, competitor PDL-1-mFc-biotin (summary table; IC50 in ng/ml in Table 2). Here is the method:
(§4) PD-1-mFc antigen (CrownBio) was suspended in PBS (Hyclone,Cat No:SH30256.01B) buffer (2 ug/ml, 100 ul/ well) and coated on the 96 well plate (costar, Cat No.:9018) 4° C. overnight. Plates were washed 3 times using washing buffer: PBS+0.05% Tween 20(Sigma, Cat No.:P1379). 200 ul of blocking buffer (PBS+1%BSA(Roche, Cat No.:738328)), was added to each well, incubated at 37° C. for 1 hour, and washed 3 times. Various concentrations (suitable dilutions of hybridoma supernatant in PBS) of the anti-PD-1 Abs were added to the wells (100 μl/well) and incubated at 37° C. for 1 hour. […] Secondary antibody (Avidin HRP eBioscience cat No.:E07418-1632, 1:500, 100 ul/well) was added, incubated at 37 ° C. for 0.5 hour, and washed 3 times. TMB (Sigma, Cat No.: T0440, 100 ul/well) was added, and incubated for 3 min at RT. To stop the reaction, 2N H2SO4 (100 ul/well), was added. The colorimetric signals were developed and read at 450 nm using a Auto Plate SpectraMax Plus (Supplier: Molecular Devices; Model: MNR0643; Software: SoftMax Pro v5.4).

Experiment [4] concerns the target T4, human PD-1 on cells (293T cells transfected with human PD-1) (human, UniProt Q15116 25-288).
T4 construct: whole, on cells; Also used as the target for the functional rows, where PD-1 stands on human T cells
Nature of the experiment: FACS blockage on hPD-1-293T cells, competitor biotin PD-L2. Here is the method: (§5) Various concentrations of the testing hybridoma antibodies were added to the cell suspension and incubated at 4° C. for 60 minutes in 96 well plates. […] Plates were washed 3 times, and mouse anti-biotin PE antibody (Biolgend, cat# 409004) was added. Flow cytometric analyses were performed using a FACS Array.
as §3

Experiment [5] addresses T4, human PD-1 on cells (293T cells …). Kind of experiment: FACS on hPD-1-293T cells. Here is the method:
The cells were incubated with the indicated antibody (20 ug/ml with the dilution of ⅕) at 4° C. for 1 h. Cells were washed three times with FACS buffer. A secondary antibody (PE Goat anti-mouse: 1:200; PE mouse anti-human: 1:10) was added to the cells at 100 ul/well, and incubated at 4° C. for 40min. Cells were washed three times with FACS buffer and analyzed by FACS Array.
as §3

The target of experiment [6] is T1, human PD-1 (construct not stated). Nature of the experiment: Biacore (summary table; unit from Table 7). Here is the method:
as §1
(SPR reads the build-up and loss of mass on a sensor chip optically.)

The target of experiment [7] is T3, human PD-1 extracellular domain fused …. Nature of the experiment: blockage ELISA, coated PD-1-mFc, competitor PDL-1-mFc-biotin. Here is the method: as §4, §3
For experiment [8], the target named is T2, human PD-1 extracellular domain fused …. Kind of experiment: ELISA on coated PD1-hFc. How it is done:
as §2, §3

The target of another experiment is T5, mouse PD-1 (mouse, UniProt Q02242 25-169, limits assumed).
T5 sequence (looked up): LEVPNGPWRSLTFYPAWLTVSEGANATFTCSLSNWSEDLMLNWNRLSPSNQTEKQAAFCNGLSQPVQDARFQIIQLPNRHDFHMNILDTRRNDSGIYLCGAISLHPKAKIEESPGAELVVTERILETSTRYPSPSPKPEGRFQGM
Nature of the experiment: assays not detailed.

The target of experiment [9] is T4, human PD-1 on cells (293T cells …). Nature of the experiment: FACS blockage on hPD-1-293T cells, competitor biotin PD-L1. How it is done: as §5, §3
Another experiment addresses human CD28 (human, UniProt P10747 19-152, limits assumed). Kind of experiment: Interaction with CTLA4, ICOS CD28; assay not detailed.
The next experiment concerns the target T6, human ICOS (human, UniProt Q9Y6W8 21-140, limits assumed).
T6 sequence (looked up): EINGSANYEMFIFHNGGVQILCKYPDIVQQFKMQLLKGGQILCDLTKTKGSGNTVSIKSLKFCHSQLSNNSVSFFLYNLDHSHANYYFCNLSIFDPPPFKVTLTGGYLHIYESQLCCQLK
The experiment is described as above.

The target of the next experiment is T7, human CTLA4 (human, UniProt P16410 36-161, limits assumed).
T7 sequence (looked up): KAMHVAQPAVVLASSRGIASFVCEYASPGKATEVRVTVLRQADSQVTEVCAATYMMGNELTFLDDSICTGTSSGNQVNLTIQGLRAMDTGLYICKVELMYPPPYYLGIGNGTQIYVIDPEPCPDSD
The experiment is described as above.

Chain of human CD28 (P10747 19-152 limits assumed): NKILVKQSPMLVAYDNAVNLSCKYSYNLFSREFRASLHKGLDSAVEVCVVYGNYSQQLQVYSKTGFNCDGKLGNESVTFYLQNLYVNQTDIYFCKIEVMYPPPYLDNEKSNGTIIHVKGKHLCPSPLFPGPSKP
T1 sequence (Q15116 25-167 limits assumed): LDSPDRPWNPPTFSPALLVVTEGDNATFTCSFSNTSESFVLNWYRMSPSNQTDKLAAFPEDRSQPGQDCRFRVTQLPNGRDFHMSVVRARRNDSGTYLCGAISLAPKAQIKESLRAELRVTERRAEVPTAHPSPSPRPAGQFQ
T3 sequence (Q15116 25-170): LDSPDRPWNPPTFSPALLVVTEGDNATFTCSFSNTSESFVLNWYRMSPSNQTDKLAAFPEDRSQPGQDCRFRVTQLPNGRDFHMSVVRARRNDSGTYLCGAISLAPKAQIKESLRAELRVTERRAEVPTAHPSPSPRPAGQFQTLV
T2 sequence (chain, as listed by the source limits assumed): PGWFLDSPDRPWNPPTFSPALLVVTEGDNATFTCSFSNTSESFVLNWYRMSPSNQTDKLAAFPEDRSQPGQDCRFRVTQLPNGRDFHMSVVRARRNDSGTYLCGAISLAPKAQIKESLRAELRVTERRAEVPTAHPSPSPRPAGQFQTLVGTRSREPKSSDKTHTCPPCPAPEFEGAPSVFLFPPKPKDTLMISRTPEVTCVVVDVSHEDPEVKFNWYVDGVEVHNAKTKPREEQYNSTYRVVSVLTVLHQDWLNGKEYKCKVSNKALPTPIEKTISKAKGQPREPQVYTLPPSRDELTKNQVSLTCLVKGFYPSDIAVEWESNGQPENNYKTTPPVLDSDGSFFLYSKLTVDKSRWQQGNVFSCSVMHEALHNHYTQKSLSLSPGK
T4 sequence (Q15116 25-288): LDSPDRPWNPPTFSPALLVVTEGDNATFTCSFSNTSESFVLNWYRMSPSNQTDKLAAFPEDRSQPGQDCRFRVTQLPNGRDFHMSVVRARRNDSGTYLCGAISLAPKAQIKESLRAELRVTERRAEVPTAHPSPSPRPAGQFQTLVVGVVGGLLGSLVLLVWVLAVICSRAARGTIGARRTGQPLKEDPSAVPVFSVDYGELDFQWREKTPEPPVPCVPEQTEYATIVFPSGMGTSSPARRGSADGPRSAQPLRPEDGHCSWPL

B1: 22A5 murine anti-PD-1 antibody (antibody, V domains shown)
VH: EVKLVESGGGLVKPGGSLKLSCSASGFSFSYYDMSWVRQTPEKGLEWVATISGGGRNTYFIDSVKGRFTISRDNVKNNLYLLMSSLRSEDTALYYCASPYEGAVDFWGQGTSVTVSS
VL: DIVMTQSHKVMSTSVGDRVSITCKASQDVDNAVAWYQQNPGQSPKLLIKWASTRHHGVPDRFTGSGSGTDFTLTISTVQSEDLADFFCQQYSTFPYTFGGGTKLEIKR
notes: Purified hybridoma antibody; also called 22A5-mIgG1
As to B1, the Ka in experiment [1] turned out to be 5.17e+10 M⁻¹. The Kd in [1] and in experiment [6] was 0.0193 nM each time. Also, in experiment [1], the koff (as a rule, the first-order rate constant of dissociation) came out at 2.88e-05 s⁻¹. The kon (usually the rate constant with which the complex forms) in experiment [1] stood at 1.49e+06 M⁻¹ s⁻¹. In addition, the EC50 (commonly the midpoint of the concentration-response curve) in [2] is 0.0194 µg/mL; in experiment [5], 0.0775 µg/mL; in [8] it was 0.0194 µg/mL. Moreover, the IC50 (commonly the concentration that gives 50% inhibition) is 1.11 µg/mL in [3], 0.21 µg/mL in [4], 1.11 µg/mL in [7] and 0.0562 µg/mL in experiment [9]. In addition, the binding result in the experiment with mouse PD-1, with human CD28, with human ICOS and with human CTLA4 was “no binding” throughout.

B2: 7A4 murine anti-PD-1 antibody (antibody, V domains shown)
VH: QIHLVQSGPELKKPGETVKISCKASGYTFTNFGMNWVKQAPGKGLKWMGWISGYTREPTYAADFKGRFAISLETSASTAYLQINDLKNEDMATYFCARDVFDYWGQGTTLTVSS
VL: DIVLTQSPASLAVSLGQRATISCRASESVDNYGYSFMNWFQQKPGQPPKLLIYRASNLESGIPARFSGSGSRTNFTLTINPVEADDVATYFCQQSNADPTFGGGTNLEIKR
notes: Purified hybridoma antibody; also called 7A4-mIgG1
For B2, the Ka in [1] was determined as 4.06e+10 M⁻¹. Also, the Kd (as a rule, the concentration at which binding is half-saturated) in experiment [1] amounted to 0.0246 nM. The molecule also registered a koff in [1] of 4.82e-05 s⁻¹. Moreover, the kon in experiment [1] was determined as 1.96e+06 M⁻¹ s⁻¹. In addition, the values for the EC50 in experiment [2], in experiment [5] and in experiment [8] were 0.00932 µg/mL, 0.0389 µg/mL and 0.00932 µg/mL, respectively. Besides, the IC50 in experiment [3] came to 0.699 µg/mL; in experiment [4] it was 0.00445 µg/mL; in experiment [7] it was 0.699 µg/mL; in experiment [9], 0.0289 µg/mL. Also, the binding result in the experiment with mouse PD-1, in the experiment with human CD28, with human ICOS and in the experiment with human CTLA4 was “no binding” each time.

B3: 15H5 murine anti-PD-1 antibody (antibody, V domains shown)
VH: EVKLVESGGGLVKPGGSLKLSCAASGFAFRSYDMSWVRQTPEKILEWVATISGGGSYTYYQDSVKGRFTISRDNARNTLYLQMSSLRSEDTALYYCASPYGPYFDYWGQGTTLTVSS
VL: DIQMNQSPSSLSASLGDTITITCHASQSINVWLSWYQQKPGNIPKLLIYRASNLHTGVPSRFSGSGSGTGFTLTISSLQPDDIATYYCQQGQSYPWTFGGGTKLEIKR
notes: Purified hybridoma antibody; also called 15H5-mIgG1
In experiment [1], B3 registered a Ka of 5.44e+10 M⁻¹. Also, the Kd in experiment [1] and in experiment [6] was 0.0184 nM throughout. The same molecule gave a koff in experiment [1] of 3.67e-05 s⁻¹. The molecule also displayed a kon in experiment [1] of 2e+06 M⁻¹ s⁻¹. For the same molecule, the EC50 in [2] worked out at 0.0134 µg/mL; in experiment [5], 0.0454 µg/mL; in experiment [8], 0.0134 µg/mL. Moreover, the half-inhibitory concentration (IC50) in experiment [3] was 0.873 µg/mL; in [4] it was 0.063 µg/mL; in [7] it was 0.873 µg/mL; in experiment [9], 0.0356 µg/mL. The binding result with mouse PD-1, in the experiment with human CD28, with human ICOS and in the experiment with human CTLA4 was “no binding” each time.
